# According to paper doi:10.1101/2023.10.16.562645 (bioRxiv, 2023):
# B1: Bacillus subtilis YsiA (natural protein, B. subtilis, UniProt P94548 1-194, looked up)
# chain: MKQKRPKYMQIIDAAVEVIAENGYHQSQVSKIAKQAGVADGTIYLYFKNKEDILISLFKEKMGQFIERMEEDIKEKATAKEKLALVISKHFSLLAGDHNLAIVTQLELRQSNLELRQKINEILKGYLNILDGILTEGIQSGEIKEGLDVRLARQMIFGTIDETVTTWVMNDQKYDLVALSNSVLELLVSGIHNK
# Target: the molecule itself
# Test: SEC
protein,measurement,value
B1,stoichiometry N,2
